Among the data in patent publication US20150344548A1 (XBIOTECH, published 2015) are Kd values, retold here.

The target of this assay is T1, commercial wildtype SpA (Staphylococcus aureus protein A) (Staphylococcus aureus, UniProt A0A0H3K686 37-477).
T1 construct: Bought wildtype SpA; also called SpA-coated beads; antigen
Nature of the assay: Bio-Layer Interferometry (ForteBio Octet Red 96), 20 nM antigen. (In general: Biolayer interferometry detects binding as a change in optical thickness at a sensor tip.)

T1 sequence (A0A0H3K686 37-477 limits assumed): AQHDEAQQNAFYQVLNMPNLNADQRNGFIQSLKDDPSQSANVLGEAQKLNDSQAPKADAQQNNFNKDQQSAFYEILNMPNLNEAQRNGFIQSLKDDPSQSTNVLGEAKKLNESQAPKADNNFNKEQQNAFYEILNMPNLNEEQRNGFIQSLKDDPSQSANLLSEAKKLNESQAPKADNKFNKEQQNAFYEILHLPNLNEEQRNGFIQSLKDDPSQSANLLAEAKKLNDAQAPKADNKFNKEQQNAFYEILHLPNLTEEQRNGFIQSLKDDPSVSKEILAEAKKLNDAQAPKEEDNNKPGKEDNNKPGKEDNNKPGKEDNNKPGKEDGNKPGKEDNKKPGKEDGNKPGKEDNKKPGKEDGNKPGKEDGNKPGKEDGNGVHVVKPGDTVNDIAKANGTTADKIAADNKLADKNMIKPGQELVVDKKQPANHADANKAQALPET

B1: PA7.2-G3 Ab (antibody)
heavy: EVQLVESRGGLVQPGGSLRLSCAASGFTFSNYAMSWVRQAPGKGLEWVSTISGSDGGTYYADSVKGRFTISRDNSGNTVYLQMNSLREDDTAVYYCARVGLSAPVTFFDFWGQGTLVTVSSASTKGPSVFPLAPCSRSTSGGTAALGCLVKDYFPEPVTVSWNSGALTSGVHTFPAVLQSSGLYSLSSVVTVPSSSLGTQTYTCNVNHKPSNTKVDKRVELKTPLGDTTHTCPRCPEPKSCDTPPPCPRCPEPKSCDTPPPCPRCPEPKSCDTPPPCPRCPAPELLGGPSVFLFPPKPKDTLMISRTPEVTCVVVDVSHEDPEVQFKWYVDGVEVHNAKTKPREEQYNSTFRVVSVLTVLHQDWLNGKEYKCKVSNKALPAPIEKTISKTKGQPREPQVYTLPPSREEMTKNQVSLTCLVKGFYPSDIAVEWESSGQPENNYNTTPPMLDSDGSFFLYSKLTVDKSRWQQGNIFSCSVMHEALHNRFTQKSLSLSPGK
light: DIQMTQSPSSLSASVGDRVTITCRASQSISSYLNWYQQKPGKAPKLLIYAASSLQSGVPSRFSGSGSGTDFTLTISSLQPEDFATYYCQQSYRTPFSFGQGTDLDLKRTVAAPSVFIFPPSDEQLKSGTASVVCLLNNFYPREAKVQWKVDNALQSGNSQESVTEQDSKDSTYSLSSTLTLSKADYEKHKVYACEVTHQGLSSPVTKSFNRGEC
notes: Human IgG3; copies: 2 + 2
The molecule B1 came in with a Kd below 1 pM.

The term Kd denotes the constant that tells how readily two partners part at equilibrium. Low values mean a tighter complex, high ones a looser complex.
